{
  "source": "patent US20230078601A1",
  "about": "(CLEVELAND CLINIC FOUNDATION, published 2023)",
  "key": {"Native p17-33": {"molecular_target": "T1, Native p17-33", "T1 construct": "also called AMHR2-ED 17-33 17-mer peptide", "T1 peptide": "GSTKTLGELLDTGTELP", "experiment": "SPOT peptide array of membrane-bound 17-mer peptides, 4D12G1, chemiluminescence", "method": "on cellulose membranes (JPT Peptide Technologies, Berlin, Germany), treated overnight with blocking buffer (Thermo Fisher), followed by treatment with the 4D12G1 mAb at 1.0 μg/ml for 3 hours at room temperature, followed by three washes with PBS containing 0.01% Tween-20 (Bio-Rad). The membranes were then treated with a 1:10,000 dilution of an HRP-conjugated rabbit anti-mouse IgG (MilliporeSigma) followed by three washes with PBS containing 0.01% Tween-20 (Bio-Rad). Bound antibody was detected using the HyGLO chemiluminescence system (Thomas Scientific).\nAn overlapping series of 16-mer peptides spanning the entire 132 amino acid sequence of human AMHR2-ED (FIG. 3A) with moving single amino acid shifts were plated for direct ELISA testing using the 4D12G1 mAb as primary antibody. […] To determine amino acids recognized by the 4D12G1 mAb, an overlapping series of peptides spanning the immunoreactive sequence comprising AMHR2-ED 13-30 were synthesized with alanine substitutions at each N-terminal residue or with glycine substitutions for any native N-terminal alanine. These peptides were used in competitive ELISAs to determine which residues inhibit binding of the 4D12G1 mAb with solid phase rhAMHR2-ED. […] Bound antibody was detected by chemiluminescence. […]"}, "[1]": {"molecular_target": "T2, mouse AMHR2 (in lysate of a normal young C57BL/6 female mouse ovary) (mouse, UniProt Q8K592 16-568, limits assumed)", "T2 construct": "Denatured ovary lysate on a Western blot; also called mouse AMHR2-ED", "T2 sequence (looked up)": "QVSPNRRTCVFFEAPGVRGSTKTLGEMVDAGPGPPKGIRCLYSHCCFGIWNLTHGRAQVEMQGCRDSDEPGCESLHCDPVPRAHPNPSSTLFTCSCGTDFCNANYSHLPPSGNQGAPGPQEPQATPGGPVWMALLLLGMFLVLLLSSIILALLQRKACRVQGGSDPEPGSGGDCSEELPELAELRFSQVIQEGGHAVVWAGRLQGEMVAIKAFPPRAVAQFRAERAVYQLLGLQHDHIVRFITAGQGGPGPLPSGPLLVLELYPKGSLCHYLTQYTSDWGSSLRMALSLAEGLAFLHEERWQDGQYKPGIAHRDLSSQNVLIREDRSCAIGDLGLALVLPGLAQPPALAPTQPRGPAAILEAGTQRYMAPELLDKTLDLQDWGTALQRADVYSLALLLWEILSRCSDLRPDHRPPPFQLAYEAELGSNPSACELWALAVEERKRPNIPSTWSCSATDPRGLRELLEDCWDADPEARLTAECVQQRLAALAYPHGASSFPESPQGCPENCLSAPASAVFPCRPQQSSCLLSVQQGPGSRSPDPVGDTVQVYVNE", "experiment": "Western blot of mouse ovary lysate", "method": "The suspension was centrifuged to remove debris, the lysates were washed in PBS, and 25 μg of protein from each lysate was loaded into each lane of denaturing SDS-PAGE gels (Bio-Rad). Gels were transferred onto polyvinylidene difluoride (PVDF) membranes (Bio-Rad) and treated with the 4D12G1 mAb at 0.001 μg/ml as primary antibody. In FIG. 2D, a commercially available AMHR2-ED mAb (#sc-377413; Santa Cruz Biotechnology, Dallas, Tex.) at 1.0 μg/ml was used instead of the 4D12G1 mAb as the primary antibody for detecting AMHR2-ED. Western blots of lysates were used to detect capase-3-mediated cleavage of poly (ADP-ribose) polymerase-1 (PARP-1) in AMHR2-OVCAR8 cells treated with increasing concentrations of 4D12G1 mAb (1.0-10 μg/ml) by using a primary rabbit antibody for detection of the intact 116 kDa PARP-1 and its 89 kDa cleaved variant associated with apoptosis (Cell Signaling Technology, Danvers, Mass.). Secondary detection antibodies included treatment with a 1:10,000 dilution of an HRP-conjugated rabbit anti-mouse IgG (MilliporeSigma) or a 1:5,000 dilution of an HRP-conjugated goat anti-rabbit antibody (MilliporeSigma). […]"}, "rβ-Casein": {"molecular_target": "T3, rβ-Casein (mouse, UniProt P10598)", "T3 construct": "recombinant; also called recombinant mouse β-casein; recombinant β-casein", "T3 sequence (P10598 16-231 limits assumed)": "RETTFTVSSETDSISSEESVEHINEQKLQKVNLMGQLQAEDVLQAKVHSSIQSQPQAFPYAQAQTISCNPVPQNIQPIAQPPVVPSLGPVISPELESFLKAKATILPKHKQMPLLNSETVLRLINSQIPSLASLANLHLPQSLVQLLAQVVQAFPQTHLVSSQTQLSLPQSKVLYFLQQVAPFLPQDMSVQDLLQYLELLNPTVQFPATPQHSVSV", "experiment": "competitive ELISA: 4D12G1 pre-incubated with rising rβ-casein, then added to plates coated with rhAMHR2-ED", "method": "The specificity of the mAbs was determined by competitive ELISA. Briefly, mAbs were incubated with increasing concentrations of rhAMHR2-ED in liquid phase PBS containing 0.02% Tween-20 (Bio-Rad) for 24 hours at 4° C. The antigen-antibody mixtures were added to the 96-well Maxisorp microtiter plates (Corning Life Sciences, Tewksbury, Mass.) pre-coated with 4 μg/ml rhAMHR2-ED followed by blocking with 1% BSA (Sigma-Aldrich). Recombinant mouse β-casein was used as the specificity control. Wells were then incubated with a secondary anti-mouse IgG conjugated with horseradish peroxidase (HRP; MilliporeSigma, Burlington, Mass.) followed by addition of 2,2′-Azino-bis(3-ethylbenzothiazoline-6-sulfonic acid) diammonium salt (ABTS) substrate (Sigma-Aldrich). Optical density was determined by absorbance at 405 nm."}},
  "data": [
    {"binder": "4D12G1 mAb (antibody, IgG1, V domains shown, also called 4D12G1 IgG1 mAb) VH: DVKLVESGGGLVKLGGSLKLSCAASGFTFSRYFMSWVRQTPEKRLELVAAINSDGGRTYYPDTVKGRFTISRDNAKNTLYLQMSSLKSEDTALYYCTRHIYSYYEDYFDYWGQGTTLTVSS VL: DVVMTQTPLSLPVSLGDQASISCRSSQSLVHSNGNTYLHWYLQKPGQSPKLLIYKVSKRFSGVPDRFSGSGSGTDFTLKISRVEAEDLGVYFCSQSTHVYTFGGGTKLEIK", "values": [
      {"measurement": "binding result", "setting": "Native p17-33", "result": "binds"},
      {"measurement": "binding result", "setting": "[1]", "result": "binds"},
      {"measurement": "binding result", "setting": "rβ-Casein", "result": "no binding (tested: 100 µg/ml)"}
    ]}
  ]
}
